Test results from the supplement of paper PMC11246515.
± gives the standard deviation of the averaged measurements.

Test: total protein half-life in vivo (active degradation + dilution); higher = more stable protein
[1] = E. coli NCM3722 delta-clpP delta-lon delta-hslV, growth: N-lim chemostat, doubling time 6 h
[2] = E. coli NCM3722 delta-clpP, growth: N-lim chemostat, doubling time 6 h
[3] = E. coli NCM3722 delta-hslV, growth: N-lim chemostat, doubling time 6 h
[4] = E. coli NCM3722 delta-lon, growth: N-lim chemostat, doubling time 6 h
[5] = E. coli NCM3722 delta-smpB, growth: N-lim chemostat, doubling time 6 h
[6] = wild type E. coli NCM3722, growth: C-lim chemostat, doubling time 3 h
[7] = wild type E. coli NCM3722, growth: C-lim chemostat, doubling time 6 h
[8] = wild type E. coli NCM3722, growth: C-lim chemostat, doubling time 12 h
[9] = wild type E. coli NCM3722, growth: N-lim chemostat, doubling time 6 h
[10] = wild type E. coli NCM3722, growth: N-lim chemostat, doubling time 12 h
[11] = wild type E. coli NCM3722, growth: P-lim chemostat, doubling time 6 h
[12] = wild type E. coli NCM3722, growth: P-lim chemostat, doubling time 12 h

Sequence	total protein half-life in vivo [1]	total protein half-life in vivo [2]	total protein half-life in vivo [3]	total protein half-life in vivo [4]	total protein half-life in vivo [5]	total protein half-life in vivo [6]	total protein half-life in vivo [7]	total protein half-life in vivo [8]	total protein half-life in vivo [9]	total protein half-life in vivo [10]	total protein half-life in vivo [11]	total protein half-life in vivo [12]
MSKSLQKPTILNVETVARSRLFTVESVDLEFSNGVRRVYERMRPTNREAVMIVPIVDDHLILIREYAVGTESYELGFSKGLIDPGESVYEAANRELKEEVGFGANDLTFLKKLSMAPSYFSSKMNIVVAQDLYPESLEGDEPEPLPQVRWPLAHMMDLLEDPDFNEARNVSALFLVREWLKGQGRV	4.86 ± 0.33 h	4.8 ± 1.8 h	3.56 ± 0.2 h	4.58 ± 0.89 h	3.4 ± 0.13 h	3.39 ± 0.13 h	5.24 ± 0.67 h	9.26 ± 1.9 h	3.9 ± 0.67 h	5.391 ± 0.048 h	5.95 ± 0.12 h	11.5 ± 1 h
MGMENYNPPQEPWLVILYQDDHIMVVNKPSGLLSVPGRLEEHKDSVMTRIQRDYPQAESVHRLDMATSGVIVVALTKAAERELKRQFREREPKKQYVARVWGHPSPAEGLVDLPLICDWPNRPKQKVCYETGKPAQTEYEVVEYAADNTARVVLKPITGRSHQLRVHMLALGHPILGDRFYASPEARAMAPRLLLHAEMLTITHPAYGNSMTFKAPADF [P0AA37]	4.98 ± 0.17 h	4.59 ± 0.51 h	5.03 ± 0.2 h	4.55 ± 1.1 h	4.63 ± 0.28 h	3.82 h	7.71 h		4.66 ± 0.18 h	7.6 h	6.39 h	12.7 h
MKYVFIEKHQAEFSIKAMCRVLRVARSGWYTWCQRRTRISTRQQFRQHCDSVVLAAFTRSKQRYGAPRLTDELRAQGYPFNVKTVAASLRRQGLRAKASRKFSPVSYRAHGLPVSENLLEQDFYASGPNQKWAGDITYLRTDEGWLYLAVVIDLWSRAVIGWSMSPRMTAQLACDALQMALWRRKRPRNVIVHTDRGGQYCSADYQAQLKRHNLRGSMSAKGCCYDNACVESFFHSLKVECIHGEHFISREIMRATVFNYIECDYNRWRRHSWCGGLSPEQFENKNLA [P0CF81]	5.16 ± 0.69 h											
MIGRISRFMTRFVSRWLPDPLIFAMLLTLLTFVIALWLTPQTPISMVKMWGDGFWNLLAFGMQMALIIVTGHALASSAPVKSLLRTAASAAKTPVQGVMLVTFFGSVACVINWGFGLVVGAMFAREVARRVPGSDYPLLIACAYIGFLTWGGGFSGSMPLLAATPGNPVEHIAGLIPVGDTLFSGFNIFITVALIVVMPFITRMMMPKPSDVVSIDPKLLMEEADFQKQLPKDAPPSERLEESRILTLIIGALGIAYLAMYFSEHGFNITINTVNLMFMIAGLLLHKTPMAYMRAISAAARSTAGILVQFPFYAGIQLMMEHSGLGGLITEFFINVANKDTFPVMTFFSSALINFAVPSGGGHWVIQGPFVIPAAQALGADLGKSVMAIAYGEQWMNMAQPFWALPALAIAGLGVRDIMGYCITALLFSGVIFVIGLTLF		5.89 h		5.21 h	5.88 h				5.5 h	15.3 h		
MIDDDGYRPNVGIVICNRQGQVMWARRFGQHSWQFPQGGINPGESAEQAMYRELFEEVGLSRKDVRILASTRNWLRYKLPKRLVRWDTKPVCIGQKQKWFLLQLVSGDAEINMQTSSTPEFDGWRWVSYWYPVRQVVSFKRDVYRRVMKEFASVVMSLQENTPKPQNASAYRRKRG [P0A776]	5.67 ± 0.079 h	5.62 ± 0.48 h	6.81 ± 1.3 h	6.4 ± 0.12 h	5.02 ± 0.73 h		5.48 ± 0.44 h	9.01 ± 3.2 h	4.84 ± 0.076 h	11.9 ± 3.9 h		9.25 ± 0.6 h
MPSIRLADLAQQLDAELHGDGDIVITGVASMQSAQTGHITFMVNPKYREHLGLCQASAVVMTQDDLPFAKSAALVVKNPYLTYARMAQILDTTPQPAQNIAPSAVIDATAKLGNNVSIGANAVIESGVELGDNVIIGAGCFVGKNSKIGAGSRLWANVTIYHEIQIGQNCLIQSGTVVGADGFGYANDRGNWVKIPQIGRVIIGDRVEIGACTTIDRGALDDTIIGNGVIIDNQCQIAHNVVIGDNTAVAGGVIMAGSLKIGRYCMIGGASVINGHMEICDKVTVTGMGMVMRPITEPGVYSSGIPLQPNKVWRKTAALVMNIDDMSKRLKSLERKVNQQD	6.07 ± 0.77 h	6.31 ± 1.8 h	5.56 ± 0.47 h	5.67 ± 0.27 h	5.17 ± 0.14 h	2.94 ± 0.27 h	5.58 ± 0.18 h	12.2 ± 1.4 h	5.06 ± 0.12 h	9.29 ± 0.54 h	5.9 ± 0.48 h	12.7 ± 0.47 h
MSKNYHIAVLPGDGIGPEVMTQALKVLDAVRNRFAMRITTSHYDVGGAAIDNHGQPLPPATVEGCEQADAVLFGSVGGPKWEHLPPDQQPERGALLPLRKHFKLFSNLRPAKLYQGLEAFCPLRADIAANGFDILCVRELTGGIYFGQPKGREGSGQYEKAFDTEVYHRFEIERIARIAFESARKRRHKVTSIDKANVLQSSILWREIVNEIATEYPDVELAHMYIDNATMQLIKDPSQFDVLLCSNLFGDILSDECAMITGSMGMLPSASLNEQGFGLYEPAGGSAPDIAGKNIANPIAQILSLALLLRYSLDADDAACAIERAINRALEEGIRTGDLARGAAAVSTDEMGDIIARYVAEGV	3.45 ± 0.8 h	2.56 ± 0.42 h	2.43 ± 0.12 h	2.96 ± 0.089 h	2.527 ± 0.018 h	3.23 ± 0.31 h	5.057 ± 0.042 h	8.72 ± 1.7 h	2.54 ± 0.19 h	3.52 ± 0.11 h	5.34 ± 0.7 h	9.08 ± 0.2 h
